Measurements: patent publication US5661005, “β3 integrin subunit specific polypeptides, cDNAS which encode these polypeptides and methods of producing these polypeptides” (Trustees of the University of Pennsylvania, dated 1997)

Columns and labels:
[1] = target: T1, integrin β1 cytoplasmic domain (Homo sapiens (Human), UniProt P05556); test: yeast two-hybrid, quantitative β-galactosidase assay
T1 chain: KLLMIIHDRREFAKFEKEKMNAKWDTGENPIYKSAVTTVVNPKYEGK

[2] = target: T2, integrin β2 cytoplasmic domain (Homo sapiens (Human), UniProt P05107); test: as above
T2 chain: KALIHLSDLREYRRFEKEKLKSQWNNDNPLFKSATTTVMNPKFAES

[3] = target: β3 cytoplasmic tail with mutation of a serine to a proline at amino acid residue 752 (Saccharomyces cerevisiae (strain ATCC 204508 / S288c) (Baker's yeast); Homo sapiens (Human)) (UniProt P04386); test: yeast two-hybrid, quantitative β-galactosidase assay of yeast lysates

| Binder | binding result [1] | binding result [2] | reduction in the interaction (against the unmutated β3 cytoplasmic tail) [3] |
| --- | --- | --- | --- |
| β3 integrin subunit specific polypeptide comprising about 111 amino acids (SEQ ID NO: 4) (other) MPVKRSLKLDGLLEENSFDPSKITRKKSVITYSPTTGTCQMSLFASPTSSEEQKHRNGLSNEKRKKLNHPSLTESKESTTKDNDEFMMLLSKVEKLSEEIMEIMQNLSSIQ | no binding | no binding |  |
| polypeptide encoded by clone 28 (SEQ ID NO: 2), β3 integrin subunit specific polypeptide (other) GHEGPKITRKKSVITYSPTTGTCQMSLFASPTSSEEQKHRNGLSNEKRKKLNHPSLTESKESTTKDNDEFMMLLSKVEKLSEEIMEIMQNLSSIQ | no binding | no binding | 70% |
